In US20220177594A1 one finds Kd, koff and kon data, which are given here for 10 molecules.

Residue numbers refer to the chain shown, from its start.

B1: CAN_19F07_1.1 (antibody)
heavy: EVQLVESGGDLVKPGGSLRLSCVASGFTFSDYYMAWVRQAPGKGLQWVANINYDGSSTYYLDSLKSRFTISRDNAKNTLYLQMNSLRAEDTAMYYCVRGLTWDFDVWGQGTLVTVSSASTTAPSVFPLAPSCGSTSGSTVALACLVSGYFPEPVTVSWNSGSLTSGVHTFPSVLQSSGLYSLSSMVTVPSSRWPSETFTCNVAHPASKTKVDKPVPKRENGRVPRPPDCPKCPAPEMLGGPSVFIFPPKPKDTLLIARTPEVTCVVVDLDPEDPEVQISWFVDGKQMQTAKTQPREEQFNGTYRVVSVLPIGHQDWLKGKQFTCKVNNKALPSPIERTISKARGQAHQPSVYVLPPSREELSKNTVSLTCLIKDFFPPDIDVEWQSNGQQEPESKYRTTPPQLDEDGSYFLYSKLSVDKSRWQRGDTFICAVMHEALHNHYTQESLSHSPGK
light: EIVMTQSPASLSLSQEEKVTITCKASQDVDTAVAWYQQKPGQAPKLLIYLASTRHTGVPSRFSGSGSGTDFSFTISSLEPEDVAVYYCQQYSRFPLTFGQGTRNDAQPAVYLFQPSPDQLHTGSASVVCLLNSFYPKDINVKWKVDGVIQDTGIQESVTEQDKDSTYSLSSTLTMSSTEYLSHELYSCEITHKSLPSTLIKSFQRSEC
B2: CAN_19F07_2.1 (antibody)
heavy: B1 heavy with G15A, R19T, V23L, A40T, G42E, A88D, M93V, V97A
light: B1 light
B3: Canine_OSM (ligand)
chain: SCSDKYPELLGQLQKQADFMQHTNTLLDLYIRSQGLDKNGLKEHCRERPGAFPSKDALQRLSRRVFLRTLDTTLGQVLLRLAALEQDIPKAQDLEMLSGVKLNIRGFKNNIHCMAQLLPGSSETTEPTPTSPGASPSPTPTLDTFQRRLEGCRFLHGYHRFMRSVGQVFREWGKSLSRSRR
B4: CAN_09E09_1.2 (antibody)
heavy: EVQLVESGGDLVKPGGSLRLSCVASGFTFSSYAMSWVRQAPGKGLQWVAYISSGGDYIYYADTVKGRFTISRDNAKNTLYLQMNSLRAEDTAMYYCVRDPITGTFAYWGQGTLVTVSSASTTAPSVFPLAPSCGSTSGSTVALACLVSGYFPEPVTVSWNSGSLTSGVHTFPSVLQSSGLYSLSSMVTVPSSRWPSETFTCNVAHPASKTKVDKPVPKRENGRVPRPPDCPKCPAPEMLGGPSVFIFPPKPKDTLLIARTPEVTCVVVDLDPEDPEVQISWFVDGKQMQTAKTQPREEQFNGTYRVVSVLPIGHQDWLKGKQFTCKVNNKALPSPIERTISKARGQAHQPSVYVLPPSREELSKNTVSLTCLIKDFFPPDIDVEWQSNGQQEPESKYRTTPPQLDEDGSYFLYSKLSVDKSRWQRGDTFICAVMHEALHNHYTQESLSHSPGK
light: DIVLTQPTSVSGSLGQRVTISCRASQDINNYLNWYQQLPGKAPKLLVYYTSTLHSGVPDRFSGSNSGSSATLTITGLQAEDEADYYCQQGNTLPWTFGQGTRNDAQPAVYLFQPSPDQLHTGSASVVCLLNSFYPKDINVKWKVDGVIQDTGIQESVTEQDKDSTYSLSSTLTMSSTEYLSHELYSCEITHKSLPSTLIKSFQRSEC
B5: FEL_10F07_2.2 (antibody)
heavy: DVQLVESGGDLVKPGGSLRLTCVASGFTFSSYAMSWVRQAPGKGLQWVAYISSGGDYFYYADTVKGRFTISRDDAKNTLYLQMSSLKTEDTATYYCTGDPITGTFAYWGQGTLVTVSSASTTAPSVFPLAPSCGTTSGATVALACLVLGYFPEPVTVSWNSGALTSGVHTFPAVLQASGLYSLSSMVTVPSSRWLSDTFTCNVAHPPSNTKVDKTVRKTDHPPGPKPCDCPKCPPPEAAGAPSIFIFPPKPKDTLSISRTPEVTCLVVDLGPDDSDVQITWFVDNTQVYTAKTSPREEQFNSTYRVVSVLPILHQDWLKGKEFKCKVNSKSLPSPIERTISKAKGQPHEPQVYVLPPAQEELSRNKVSVTCLIKSFHPPDIAVEWEITGQPEPENNYRTTPPQLDSDGTYFVYSKLSVDRSHWQRGNTYTCSVSHEALHSHHTQKSLTQSPGK
light: DITMTQSPGSLAGSPGQQVTMNCRASQDITNYLNWYQQKPGQHPKLLIYYTSTLHSGVPDRFSGSGSGTDFTLTISNLQAEDVASYYCQQGHMLPWTFGQGTRSDAQPSVFLFQPSLDELHTGSASIVCILNDFYPKEVNVKWKVDGVVQNKGIQESTTEQNSKDSTYSLSSTLTMSSTEYQSHEKFSCEVTHKSLASTLVKSFQRSECQRE
B6: FEL_19F07_1.1 (antibody)
heavy: DVQLVESGGDLVKPGGSLRLTCVASGFTYSDYYMAWVRQAPGKGLQWVANINYDGSSTYYLDSLKSRFTISRDNAKNTLYLQMNSLKTEDTATYYCVRGLTWDFDVWGQGTLVTVSSASTTAPSVFPLAPSCGTTSGATVALACLVLGYFPEPVTVSWNSGALTSGVHTFPAVLQASGLYSLSSMVTVPSSRWLSDTFTCNVAHPPSNTKVDKTVRKTDHPPGPKPCDCPKCPPPEAAGAPSIFIFPPKPKDTLSISRTPEVTCLVVDLGPDDSDVQITWFVDNTQVYTAKTSPREEQFNSTYRVVSVLPILHQDWLKGKEFKCKVNSKSLPSPIERTISKAKGQPHEPQVYVLPPAQEELSRNKVSVTCLIKSFHPPDIAVEWEITGQPEPENNYRTTPPQLDSDGTYFVYSKLSVDRSHWQRGNTYTCSVSHEALHSHHTQKSLTQSPGK
light: EIQMTQSPSSLSASPGDRVTITCKASQDVDTAVAWYQQKPGKVPKLLIYLASTRHTGVPSRFSGSGSGTDFTLTISSLEPEDAATYYCQQYSRFPLTFGQGTRSDAQPSVFLFQPSLDELHTGSASIVCILNDFYPKEVNVKWKVDGVVQNKGIQESTTEQNSKDSTYSLSSTLTMSSTEYQSHEKFSCEVTHKSLASTLVKSFQRSECQRE
B7: FEL_19F07_1.2 (antibody)
heavy: B6 heavy
light: DITMTQSPGSLAGSPGQQVTMNCKASQDVDTAVAWYQQKPGQHPKLLIYLASTRHTGVPDRFSGSGSGTDFTLTISNLQAEDVASYYCQQYSRFPLTFGQGTRSDAQPSVFLFQPSLDELHTGSASIVCILNDFYPKEVNVKWKVDGVVQNKGIQESTTEQNSKDSTYSLSSTLTMSSTEYQSHEKFSCEVTHKSLASTLVKSFQRSECQRE
B8: FEL_19F07_2.2 (antibody)
heavy: B6 heavy with D10N, Y29F, V97A
light: B7 light
B9: CAN_19F07_2.2 (antibody)
heavy: B1 heavy with G15A, R19T, V23L, A40T, G42E, A88D, M93V, V97A
light: DIVMTQTPLSLSVSPGETASISCKASQDVDTAVAWFRQKPGQSPQRLIYLASTRHTGVPDRFSGSGSGTDFTLRISRVEADDTGVYYCQQYSRFPLTFGQGTRNDAQPAVYLFQPSPDQLHTGSASVVCLLNSFYPKDINVKWKVDGVIQDTGIQESVTEQDKDSTYSLSSTLTMSSTEYLSHELYSCEITHKSLPSTLIKSFQRSEC
B10: FEL_19F07_2.1 (antibody)
heavy: B6 heavy with D10N, Y29F, V97A
light: B6 light

A word on the Kd: it is the equilibrium constant for the complex coming apart. A low value points to tighter binding. As usually defined, the koff is the first-order rate constant of dissociation. In general, kon refers to the second-order rate constant of association. Low values mean slower complex formation, high ones faster complex formation.

The first assay deals with Canine_OSMR_hlgG1_Fc (canine). Briefly: SPR Biacore. On the technique in general: In SPR one partner is held on a chip, and binding of the other changes the refractive index at the surface.
Canine_OSMR_hlgG1_Fc (canine), sequence (chain, as listed by the source limits assumed, form in doubt): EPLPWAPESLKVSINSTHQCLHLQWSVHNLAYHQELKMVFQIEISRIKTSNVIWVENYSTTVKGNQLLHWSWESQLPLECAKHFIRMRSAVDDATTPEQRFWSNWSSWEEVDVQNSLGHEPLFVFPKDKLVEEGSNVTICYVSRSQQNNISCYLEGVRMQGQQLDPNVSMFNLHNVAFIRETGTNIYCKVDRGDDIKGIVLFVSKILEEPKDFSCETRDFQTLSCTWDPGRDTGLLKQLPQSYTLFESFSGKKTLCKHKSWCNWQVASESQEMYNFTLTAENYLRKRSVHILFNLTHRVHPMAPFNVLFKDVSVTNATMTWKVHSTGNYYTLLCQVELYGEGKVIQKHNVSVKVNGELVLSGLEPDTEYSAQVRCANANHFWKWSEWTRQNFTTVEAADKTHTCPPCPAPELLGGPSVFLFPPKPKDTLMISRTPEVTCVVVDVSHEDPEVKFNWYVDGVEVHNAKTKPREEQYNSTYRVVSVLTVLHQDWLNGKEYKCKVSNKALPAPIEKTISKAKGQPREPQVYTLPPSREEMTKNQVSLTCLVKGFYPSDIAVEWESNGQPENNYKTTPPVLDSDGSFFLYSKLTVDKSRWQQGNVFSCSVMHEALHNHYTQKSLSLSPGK
In turn, B1 showed a Kd of 9.13 nM, a koff of 0.000334 s⁻¹ and a kon of 36600 M⁻¹ s⁻¹.

As to B2, the Kd was 8.3 nM, the koff was 0.00022 s⁻¹ and the kon was determined as 26400 M⁻¹ s⁻¹.

With B3, the Kd amounted to 43.6 nM, the koff came out at 0.003 s⁻¹ and the kon turned out to be 68700 M⁻¹ s⁻¹.

B4 displayed a Kd of 37.7 nM, a koff of 0.00108 s⁻¹ and a kon of 28600 M⁻¹ s⁻¹.

As for B5, the Kd was found to be 4.99 nM, the koff stood at 0.000903 s⁻¹ and the kon was determined as 181000 M⁻¹ s⁻¹.

For B6, the Kd was 10.3 nM, the koff amounted to 0.000294 s⁻¹ and the association rate constant (kon) is 28500 M⁻¹ s⁻¹.

In the case of B7, the Kd was found to be 31 nM, the koff amounted to 0.000327 s⁻¹ and the kon was 10500 M⁻¹ s⁻¹.

Regarding B8, the Kd stood at 4.4 nM, the koff came out at 0.000215 s⁻¹ and the kon worked out at 48800 M⁻¹ s⁻¹.

In the next assay the target is Feline_OSMR_hlgG1_Fc (feline). Kind of assay: SPR Biacore.
Feline_OSMR_hlgG1_Fc (feline), sequence (chain, as listed by the source limits assumed, form in doubt): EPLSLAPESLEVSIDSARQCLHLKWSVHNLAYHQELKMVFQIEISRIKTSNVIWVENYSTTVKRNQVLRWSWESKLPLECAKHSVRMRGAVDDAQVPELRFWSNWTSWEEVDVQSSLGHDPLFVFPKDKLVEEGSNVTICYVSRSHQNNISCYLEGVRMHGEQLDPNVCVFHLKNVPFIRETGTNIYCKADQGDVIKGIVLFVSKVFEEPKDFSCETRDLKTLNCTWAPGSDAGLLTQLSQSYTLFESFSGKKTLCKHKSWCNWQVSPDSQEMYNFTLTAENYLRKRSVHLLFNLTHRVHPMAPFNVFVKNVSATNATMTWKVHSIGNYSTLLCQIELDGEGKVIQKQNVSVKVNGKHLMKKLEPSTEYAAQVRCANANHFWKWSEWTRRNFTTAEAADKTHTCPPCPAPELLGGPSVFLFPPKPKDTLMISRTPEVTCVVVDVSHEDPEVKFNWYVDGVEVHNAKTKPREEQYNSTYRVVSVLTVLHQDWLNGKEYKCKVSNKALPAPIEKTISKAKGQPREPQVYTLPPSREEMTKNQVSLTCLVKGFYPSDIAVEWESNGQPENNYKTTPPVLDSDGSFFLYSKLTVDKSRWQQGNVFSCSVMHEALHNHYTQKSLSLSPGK
B1: the Kd was determined as 0.32 nM, the koff amounted to 3.55e-05 s⁻¹ and the kon amounted to 111000 M⁻¹ s⁻¹.

B2 came in with a Kd of 0.198 nM, a koff of 1.12e-05 s⁻¹ and a kon of 56700 M⁻¹ s⁻¹.

Molecule B9 showed a Kd of 24 nM, a koff of 0.00113 s⁻¹ and a kon of 47000 M⁻¹ s⁻¹.

Molecule B3 showed a Kd of 41.1 nM, a koff of 0.00423 s⁻¹ and a kon of 103000 M⁻¹ s⁻¹.

B4 yielded a Kd of 11 nM, a koff of 0.00184 s⁻¹ and a kon of 167000 M⁻¹ s⁻¹.

B5 showed a Kd of 1.21 nM, a koff of 0.000457 s⁻¹ and a kon of 376000 M⁻¹ s⁻¹.

Molecule B6 displayed a dissociation constant Kd of 0.783 nM, an off-rate (koff) of 6.37e-05 s⁻¹ and a kon of 81300 M⁻¹ s⁻¹.

B7: the Kd turned out to be 0.435 nM, the koff turned out to be 1.95e-05 s⁻¹ and the kon was 44700 M⁻¹ s⁻¹.

For the molecule B8, the Kd stood at 0.00332 nM, the koff stood at 5.62e-07 s⁻¹ and the on-rate (kon) is 169000 M⁻¹ s⁻¹.

B10: the Kd is 0.108 nM, the koff is 4.07e-07 s⁻¹ and the kon amounted to 3790 M⁻¹ s⁻¹.
